Numbering of substitutions follows the chain as printed.
Legend:
[1] = system: T1, pigment epithelium derived factor (PEDF) isolated from human plasma
T1 sequence: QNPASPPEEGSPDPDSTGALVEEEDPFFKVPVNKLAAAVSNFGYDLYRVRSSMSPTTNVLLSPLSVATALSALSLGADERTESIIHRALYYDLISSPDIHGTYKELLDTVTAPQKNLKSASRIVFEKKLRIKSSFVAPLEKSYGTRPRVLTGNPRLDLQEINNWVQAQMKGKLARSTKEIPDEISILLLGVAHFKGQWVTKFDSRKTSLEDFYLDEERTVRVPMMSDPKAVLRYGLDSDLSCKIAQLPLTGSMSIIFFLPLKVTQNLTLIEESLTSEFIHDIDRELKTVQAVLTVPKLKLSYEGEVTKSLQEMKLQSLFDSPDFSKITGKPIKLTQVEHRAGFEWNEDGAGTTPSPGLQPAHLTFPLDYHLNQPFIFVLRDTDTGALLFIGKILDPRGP

[2] = target: T2, recombinant human PEDF expressed in CHO cells (UniProt P36955)
T2 sequence: T1 sequence with M53T, D78E, E79Q

## protein kinase CK2 holoenzyme
[1]
  phosphorylation by CK2 in the presence of poly-L-lysine (autoradiography): both rPEDF and pIPEDF were phosphorylated by CK2 in the presence of poly-L-lysine
  stoichiometry of phosphorylation: ˜0.02 mol of phosphate per mol of plasma PEDF
  stoichiometry of phosphorylation, plasma PEDF heat-treated (15 min at 56° C.) before phosphorylation: reached a plateau at ˜0.12 mol/mol
[2]
  phosphorylation by CK2 in the presence of poly-L-lysine (autoradiography): both rPEDF and pIPEDF were phosphorylated by CK2 in the presence of poly-L-lysine
  stoichiometry of phosphorylation: ˜0.1 mol of phosphate per mol of rPEDF
  stoichiometry of phosphorylation, rPEDF heat-treated (15 min at 56° C.) before phosphorylation: reached a plateau at ˜0.25 mol/mol
